Laboratory results from patent US20240368286A1 (SHANGHAI JMT BIO TECHNOLOGY, published 2024).

Key:
[1] = molecular target: Cynomolgus monkey GFRAL-His protein (cynomolgus monkey); test: ELISA, antigen coated on plate, purified antibody titrated, HRP anti-mouse IgG detection
Procedure: (§1) The ELISA assay had the following protocols. Human GFRAL-His protein, cynomolgus monkey GFRAL-His protein, or mouse GFRAL-Fc protein were coated on 96-well plates, and after blocking the wells with PBS/1% BSA solution, the hybridoma supernatant or purified antibodies were added to the reaction wells. After incubation for 1 hour at room temperature, HRP-labeled anti-mouse IgG (Fab region) antibody was added to the reaction wells to incubate for an additional hour at room temperature. After the substrate and stop solution were added successively, the OD₄₅₀ values were read. The OD₄₅₀ values were used to verify and assess the binding ability of the antibodies to the GFRAL proteins.

Mouse GFRAL-Fc protein = molecular target: T1, Mouse GFRAL-Fc protein (mouse, UniProt Q6SJE0 20-349, limits assumed); test: as above
T1 construct: not shown: Fc
T1 sequence (looked up): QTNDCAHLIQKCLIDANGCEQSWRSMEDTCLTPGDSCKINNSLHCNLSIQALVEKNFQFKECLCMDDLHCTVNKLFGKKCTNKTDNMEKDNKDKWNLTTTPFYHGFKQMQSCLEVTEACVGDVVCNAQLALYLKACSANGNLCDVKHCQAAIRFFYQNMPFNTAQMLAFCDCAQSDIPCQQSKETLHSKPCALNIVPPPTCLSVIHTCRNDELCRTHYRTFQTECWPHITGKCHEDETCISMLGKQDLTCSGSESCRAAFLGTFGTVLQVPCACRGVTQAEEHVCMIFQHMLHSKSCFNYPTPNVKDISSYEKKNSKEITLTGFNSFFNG
Procedure: as §1

Human GFRAL-His protein = molecular target: T2, Human GFRAL-His protein (human, UniProt Q6UXV0 19-351); test: as above
T2 construct: also called human GFRAL-His fusion protein; not shown: His tag
T2 sequence (looked up): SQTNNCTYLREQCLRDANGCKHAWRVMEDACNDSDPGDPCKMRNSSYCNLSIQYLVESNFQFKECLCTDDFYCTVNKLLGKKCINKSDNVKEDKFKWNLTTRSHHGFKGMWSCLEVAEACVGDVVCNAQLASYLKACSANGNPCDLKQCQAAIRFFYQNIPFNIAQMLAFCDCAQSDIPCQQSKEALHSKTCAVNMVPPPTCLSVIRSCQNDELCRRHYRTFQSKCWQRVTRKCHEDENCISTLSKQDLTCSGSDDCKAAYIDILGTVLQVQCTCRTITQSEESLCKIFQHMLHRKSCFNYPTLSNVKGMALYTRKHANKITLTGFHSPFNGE
Procedure: as §1

[2] = molecular target: T3, Human GFRAL (hGFRAL) on HEK293 reporter cells with human RET (human, UniProt Q6UXV0 19-394); test: cell-based or functional assay
T3 sequence (looked up): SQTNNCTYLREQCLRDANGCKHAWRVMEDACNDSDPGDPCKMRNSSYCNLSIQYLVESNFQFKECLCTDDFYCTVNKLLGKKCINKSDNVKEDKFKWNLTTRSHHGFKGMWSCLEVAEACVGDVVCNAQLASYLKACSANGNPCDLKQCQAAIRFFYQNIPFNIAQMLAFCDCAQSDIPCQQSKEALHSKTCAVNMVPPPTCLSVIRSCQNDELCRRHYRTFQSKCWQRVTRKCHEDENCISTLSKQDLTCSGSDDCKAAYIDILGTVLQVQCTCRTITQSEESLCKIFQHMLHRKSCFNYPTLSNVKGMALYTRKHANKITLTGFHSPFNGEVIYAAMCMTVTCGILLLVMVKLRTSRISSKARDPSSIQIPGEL

[3] = molecular target: T4, Mouse GFRAL (mGFRAL) on HEK293 reporter cells with mouse RET (mouse, UniProt Q6SJE0 20-393); test: cell-based or functional assay
T4 sequence (looked up): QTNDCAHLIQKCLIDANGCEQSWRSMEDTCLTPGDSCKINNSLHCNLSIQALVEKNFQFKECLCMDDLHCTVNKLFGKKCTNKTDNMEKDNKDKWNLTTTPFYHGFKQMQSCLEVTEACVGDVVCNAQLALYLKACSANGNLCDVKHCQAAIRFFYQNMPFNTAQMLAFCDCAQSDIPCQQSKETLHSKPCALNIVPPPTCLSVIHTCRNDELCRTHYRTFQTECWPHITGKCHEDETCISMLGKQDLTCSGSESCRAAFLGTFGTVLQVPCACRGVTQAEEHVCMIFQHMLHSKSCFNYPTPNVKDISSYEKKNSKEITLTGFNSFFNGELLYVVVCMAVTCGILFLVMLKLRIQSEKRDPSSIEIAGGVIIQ

[4] = molecular target: T5, Human GFRAL protein (Biacore analyte) (human, UniProt Q6UXV0 19-351, limits assumed); test: Biacore SPR, antibody captured via anti-human Fc on CM5, GFRAL injected, 25 C
T5 construct: also called hGFRAL
T5 sequence (looked up): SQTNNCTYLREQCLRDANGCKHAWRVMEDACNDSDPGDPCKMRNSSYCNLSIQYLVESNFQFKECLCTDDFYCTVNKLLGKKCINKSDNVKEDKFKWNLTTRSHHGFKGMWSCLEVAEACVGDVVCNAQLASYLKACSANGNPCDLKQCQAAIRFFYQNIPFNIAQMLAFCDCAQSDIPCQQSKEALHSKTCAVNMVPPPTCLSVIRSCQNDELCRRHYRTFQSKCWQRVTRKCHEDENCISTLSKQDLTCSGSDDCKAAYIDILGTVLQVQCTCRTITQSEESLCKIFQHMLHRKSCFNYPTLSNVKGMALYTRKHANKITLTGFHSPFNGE
Procedure: Binding affinity assays were performed for three antibody strains 168A7, 8E10 and 26D7 based on the Biacore affinity assay. The binding affinities of purified antibodies to human or mouse GFRAL were assessed by measuring the equilibrium dissociation constants (KD). The anti-human Fc antibody was immobilized in the flow cell of the CM5 chip according to the instructions of the amino-coupled kit (catalogue number: BR100050, Cytiva). Purified antibodies (˜300 RU) were captured on flow cells 2, 3 and 4 using flow cell 1 as a reference. Human or mouse GFRAL protein (in an HBS-EP buffer) was then injected at a flow rate of 30 μL/min and the binding kinetics were evaluated at 25° C. The results were as follows (FIGS. 1A-1C, Table 4)

| Binder | EC50 [1] [nM] | EC50 (Mouse GFRAL-Fc protein) [nM] | EC50 (Human GFRAL-His protein) [nM] | IC50 (nM), luciferase reporter gene assay, Human GFRAL/human RET [2] [nM] | IC50 (nM), luciferase reporter gene assay, Mouse GFRAL/mouse RET [3] [nM] | Kd [4] [nM] | koff [4] [s⁻¹] |
| --- | --- | --- | --- | --- | --- | --- | --- |
| 2D4 (antibody, V domains shown, Murine hybridoma antibody, purified) VH: EVNLVESGGGLVKPGGPLKLSCAASGFTFSSFVMSWVRQTPEKRLEWVASITSGGTTFYPDSVKGRFTISRDNARNILYLQMSNLRSGDTAMYYCARGPPQFSSLSMDYWGQGTSVTVSS VL: DIVMTQSQKFMSTSVGDRITITCKASQNVGTAVSWFQQKPGQVPKLLIYSASNRYTGVPDRFTGSGSGTEFTLTISNIQSEDLADYFCQQYSSLFTFGSGTKLEIK | 0.1 | 0.08 | 0.09 | 11.6 | 2.23 | – | – |
| 61G8 (antibody, V domains shown, Murine hybridoma antibody, purified) VH: QVQLKESGPGLVAPSQSLSITCTVSGFSLTGYGVNWVRQSPGKGLEWLGMIWGDGTTDYNSALKSRLTIRKDNSKSQVFLRMNSLQTDDTARYYCARDPKYNYGYAMDYWGQGTSVTVSS VL: DIVLTQAPGSLAVSLGQRATISCRASESVDNFGNSFMHWYQQKPGQSPKLLIYRASNLESGIPARFSGSGSRTDFTLTINPVEADDVATYYCQQTNEEPYTFGGGTKLEIE | 0.08 | – | 0.07 | 11.6 | > 694 | – | – |
| 8E10 (antibody, V domains shown, Murine hybridoma antibody, purified) VH: QVQLQQSGSELVRPGSSVKISCRASGYTFSNYWMNWVKQRPGQGLEWIGQIYPGDDDADYNGKFQGKATLTADKSSSTAYMQLNTLTSEDSAVYFCTRSGRRDFDYWGQGTTLTVSS VL: NIVLTQSPASLAVSLGQRATISCRASESIDNYGNSFMHWYQQKPGQPPKLLIYRASNLESGVPARFSGSGSRTDFTLTIDPVEADDAATYYCQQNNEDPYTFGGGTKLEIK | 0.06 | – | 0.05 | 3.33 | > 694 | 0.0179 | 0.000404 |
| 96C12 (antibody, V domains shown, Murine hybridoma antibody, purified) VH: RVQLRESGPGLVAPSQSLSITCTVSGFSLTGYSVNWVRQPPGKGLEWLGMIWGDGSTDYNSALKSRLSISKDNSKSQVFLKMNSLQTDDTARYYCARDRDYRYDGGYIMDSWGQGTSVTVSS VL: DIVLTQSPGSLAVSLGQRATISCRASESVDNFGNSFLHWYQQKPGQPPKLLIYRASNLESGVPARFSGSGSRTDFTLTISPVEADDVATYYCQQSNEDPRTFGGGTKLEIR | 0.03 | – | 0.03 | 6.42 | > 694 | – | – |

Continued, values first:

| EC50 [1] [nM] | EC50 (Mouse GFRAL-Fc protein) [nM] | EC50 (Human GFRAL-His protein) [nM] | IC50 (nM), luciferase reporter gene assay, Human GFRAL/human RET [2] [nM] | IC50 (nM), luciferase reporter gene assay, Mouse GFRAL/mouse RET [3] [nM] | Kd [4] [nM] | koff [4] [s⁻¹] | Binder |
| --- | --- | --- | --- | --- | --- | --- | --- |
| 0.03 | 0.12 | 0.27 | 55.5 | 7.22 | – | – | 165C5 (antibody, V domains shown, Murine hybridoma antibody, purified) VH: EVKLVESGGGLVKPGGSLKLSCAASGFTFSSYAMSWVRQTPEKRLEWVASITTGGSTYYLDSVRGRFTISRDNARNILSLQMSSLRSEDTAIYYCARSLIITATGFDYWGQGTTLTVSS VL: DIVMTQSQKFMSISVGDRVNITCRASQDVGTAVAWYQQKPGQSPKLLIYSASNRYTGVPNRFTGSGSGTDFTLAISNMQSEDLADYFCQQYSIYYTFGGGTKLEIK |
| 0.09 | – | 1.87 | 3.29 | > 694 | 0.00145 | 7.06e-05 | 168A7 (antibody, V domains shown, Murine hybridoma antibody, purified) VH: QVTLKESGPGILKPSQTLSLTCSFSGFSLSTSDMGVGWIRQPSGKGLEWLAHIWWDDDKYYNPSLKRQLTISKDNSRNQVFLKISSVDTTDTATYYCARLYDYDDEYYFDYWGQGTTLTVSS VL: DIQMTQTKSSLSASLGDRVTISCRASQDSNNYLNWYQQKPDGTVKLLIYYTSRLHSGVPSRFSGSGSGTDYSLTISNLEHEDIATYFCQQGNTIPWTFGGGTKLEIK |
| 0.07 | 0.14 | 0.28 | 104 | > 694 | – | – | 174D6 (antibody, V domains shown, Murine hybridoma antibody, purified) VH: QVQLKQSGPGLVQPSQSLSITCTVSGFSLTSYGVHWVRQSPGKGLEWLGVIWSGGRTDYNAAFISRLNISKDSSKSQVFFKMNSLQADDTAIYYCARKGSSYYGLYYYGMDFWGQGTSVTVSS VL: not shown |
| 0.06 | 0.12 | 0.18 | 37.2 | 105 | – | – | 174E10 (antibody, V domains shown, Murine hybridoma antibody, purified) VH: QVQLKQSGPGLVQPSQSLSITCTVSGFSLTSYGVHWVRQSPGKGLEWLGVIWSGGRIDYNAAFISRLSISKDNSKSQVFFKMNSLQADDTAIYYCARKGSSYYGLYYYGMDYWGQGTSVTVSS VL: DIVMTQSPSSLTVTAGEKVTMSCKSSQSLLNSGNQKNYLTWYQQKSGQTPKLLIYWASTRESGVPDRFTGSGSGTDFTLTISSVQAEDLAVYYCQNDYGYPLTFGAGTKLELK |
